Each block holds one substance with its values, some of them ahead of it.
Assays:
[1] = molecular target: β-arrestin2 (UniProt P32121); assay: direct BRET, D1R-Rluc8 and β-arrestin2-mVenus; settings: reference: wild type
[2] = molecular target: β-arrestin2 (UniProt P32121); assay: bystander BRET, β-arrestin2-Rluc2 to membrane GFP-CAAX; settings: for percent of reference: reference: wild type
[3] = molecular target: β-arrestin2 (UniProt P32121); assay: β-arrestin recruitment BRET, type not stated; settings: reference: wild type; sites S417,S421,T428,S431,T439,S441,S445,T446
[4] = sites S256,S258,S259,T360,S362,S372,S373,S380,T428,S431,T439,S441,S445,T446

Substance: D1 dopamine receptor (D1R) (from UniProt P18901) PKC-null
other: Emax, % of WT D1R ([2]; reference: PKC-null + A259S (S259 restored), sites S259): same; reference 59 ± 9.4

Substance: D1 dopamine receptor (D1R) (from UniProt P18901) S2/S3/S4 mutant (S256A/S258A/S259A)
percent of reference ([2]; sites S256,S258,S259): weaker; reference 100

Substance: D1 dopamine receptor (D1R) (from UniProt P18901) S13–S20 mutant (8 distal C-terminal S/T mutated)
percent of reference [3]: weaker; reference 100

Substance: D1 dopamine receptor (D1R) (from UniProt P18901) T5V (T360V)
percent of reference ([1]; sites T360): weaker; reference 100

Substance: D1 dopamine receptor (D1R) (from UniProt P18901) T5V/S6A (T360V/S362A)
percent of reference ([1]; sites T360,S362): weaker; reference 100
percent of reference ([2]; sites T360,S362): weaker; reference 100

Now from value to substance:

percent of reference [1, 4]: lost; reference 100
percent of reference [2, 4]: lost; reference 100
Substance: D1 dopamine receptor (D1R) (from UniProt P18901) GRK-null (14 GRK sites mutated)

percent of reference ([2]; sites S259,S397,S398,S417,S421): weaker; reference 100
Substance: D1 dopamine receptor (D1R) (from UniProt P18901) PKC-null (S259A/S397A/S398A/S417A/S421A)

percent of reference ([1]; sites S362): weaker; reference 100
Substance: D1 dopamine receptor (D1R) (from UniProt P18901) S6A (S362A)

percent of reference ([1]; sites S342,T343,T353,T354,T360,S362,S372,S373,S380,S382,S397,S398,S417,S421,T428,S431,T439,S441,S445,T446): weaker; reference 100
Substance: D1 dopamine receptor (D1R) (from UniProt P18901) Tail Total (all 20 C-terminal S/T mutated)

other: Emax, % of full-length WT D1R ([2]; reference: D1R T1 truncation, sites T360,S362): weaker; reference 112 ± 5.1
Substance: D1 dopamine receptor (D1R) T1 truncation, stop after 370 (from UniProt P18901) D1R T1 + T5V/S6A

— article PMC10095280
